Counter-ions that a name gives are not always drawn. Where no end group is shown, it is not given here.
What was measured:
Figure 17 = experiment: Figure 17
Source text: Table printed on a drawing sheet, Figure 17
AK10 and Dextran 40 kDa are controls.
First reader's note: The Sample column holds peptide sequences with SEQ ID NOs as well as non-peptide controls; on the sheet the PBS/CM sub-heads stand in one merged head cell, split here into a second head row.

Figure 15 = experiment: Figure 15
Source text: Table printed on a drawing sheet, Figure 15

Compound	De/10^-5 cm^2 s^-1 | CM (Figure 17)	De/10^-9 cm^2 s^-1 | CM (Figure 15)
O=C1OC2(c3ccc(O)cc3Oc3cc(O)ccc32)c2ccccc21 [Fluorescein Na Salt]	1.05 10^-5 cm^2 s^-1	
M13 ISLPSPTGGGS (SEQ ID NO: 29) (also: displayed on M13 phage)		4.00 10^-9 cm^2 s^-1
M13 SSQLSRPGGGS (SEQ ID NO: 30) (also: displayed on M13 phage)		1.72 10^-9 cm^2 s^-1
M13 YNSPTHHGGGS (SEQ ID NO: 31) (also: displayed on M13 phage)		1.45 10^-9 cm^2 s^-1

Reference: patent publication US20210284688A1, “MUCUS-PENETRATING PEPTIDES AND SCREENING ASSAY” (BOARD OF REGENTS, THE UNIVERSITY OF TEXAS SYSTEM, priority 2016, published 2021)
